Assays:
[1] = test system: Zymoseptoria tritici (SEPTTR-184); experiment: Cyp51 dsRNA tile (fragment) foliar application bioassay (Example 6); type: in vivo; conditions: for ED50 (ppm) SEPTTR-184 1DP / ED80 (ppm) SEPTTR-184 1DP / Disease Control (%) SEPTTR-184 1DP: 1 day protectant; for ED50 (ppm) SEPTTR-184 1DP / ED80 (ppm) SEPTTR-184 1DP / ED50 (ppm) SEPTTR-184 3DC / ED80 (ppm) SEPTTR-184 3DC: calculated from disease control; for Disease Control (%) SEPTTR-184 1DP / Disease Control (%) SEPTTR-184 3DC: average of 2 trials; for ED50 (ppm) SEPTTR-184 3DC / ED80 (ppm) SEPTTR-184 3DC / Disease Control (%) SEPTTR-184 3DC: 3 days curative
Method: The 200 ppm concentration for each treatment was prepared by adding the calculated volume of the corresponding dsRNA solution in TE buffer. […] A non-target dsRNA control (YFP), a TE/phosphate buffer control, disease pressure control, and clean plant control were included.
(§1) These plants were inoculated with an aqueous spore suspension of Zymoseptoria tritici either prior to or after fungicidal treatments. After inoculation the plants were kept in 100% relative humidity to allow spores to germinate and infect the leaves. The plants were then transferred to a greenhouse set at 20° C. until disease developed.

[2] = test system: Zymoseptoria tritici (SEPTTR US-184); experiment: Cyp51 dsRNA foliar application bioassay on wheat seedlings, isolate US-184 (Example 5); type: in vivo; conditions: compared to the non-treated control; isolate not given
Method: RNAi (dsRNA) fungicidal solutions were prepared in TE buffer (pH 8.0), which were then mixed with 9 volumes of phosphate buffer (pH 7.5) containing an adjuvant. The fungicidal solutions were applied to wheat seedlings using an automated booth sprayer to run-off. All sprayed plants were allowed to air dry prior to further handling.
The following served as controls: adjuvant in phosphate buffer control, disease pressure control (untreated), and clean plant control (negative control).
as §1

Molecule | ED50 (ppm) SEPTTR-184 1DP [1] | ED80 (ppm) SEPTTR-184 1DP [1] | Disease Control (%) SEPTTR-184 1DP ([1]; rate 3.125 ppm) | Disease Control (%) SEPTTR-184 1DP ([1]; rate 12.5 ppm) | Disease Control (%) SEPTTR-184 1DP ([1]; rate 50 ppm) | Disease Control (%) SEPTTR-184 1DP ([1]; rate 200 ppm) | ED50 (ppm) SEPTTR-184 3DC [1] | ED80 (ppm) SEPTTR-184 3DC [1] | Disease Control (%) SEPTTR-184 3DC ([1]; rate 3.125 ppm) | Disease Control (%) SEPTTR-184 3DC ([1]; rate 12.5 ppm) | Disease Control (%) SEPTTR-184 3DC ([1]; rate 50 ppm) | Disease Control (%) SEPTTR-184 3DC ([1]; rate 200 ppm) | control of Septoria leaf blotch on wheat seedlings [2]
YFP: non-target dsRNA control (YFP, yellow fluorescent protein coding region) (nucleic acid, double-stranded RNA; synthesized partial coding region) TGTAGAAATCCTTCAGCTCGGGGCCGTACTTGGCGAAGCACTGGGCGCCGTAGGTCAGGGTGGTCACCAGGGTGCTCCAGGGCACGGGCACATCGCCGGTGGTGCAGATGAACTGGGCATCCACCTTGCCCACGCTGGCATCGCCGTAGCCCTTGCCGCGGATGCTGAAGGTGTGGCCATCCACATTGCCCTCCATCTCCACCACGTAGGGGATCTTGCCGTGGAACAGCAGGGCGCCGCTGGAGCCCAT | >200 ppm | >200 ppm | 0% | 15% | 23% | 27% | >200 ppm | >200 ppm | 15% | 19% | 19% | 35% | 
MgCyp51-T5: dsRNA tile of Zymoseptoria tritici Cyp51, 133 bp, location 1316-1448 (nucleic acid, listed as Zymoseptoria tritici) AATACAAGCACCTGTCCCCGACGACTGCCCTAGGAAGCATCGCCGAGGAGAAAGAAGACTATGGCTACGGCCTGGTAAGCAAGGGCGCGGCGTCGCCATACTTACCCTTTGGTGCGGGACGACACAGATGTAT | <3.125 ppm | >200 ppm | 61% | 66% | 70% | 77% | <3.125 ppm | >200 ppm | 52% | 64% | 68% | 78% | control Septoria leaf blotch
MgCyp51-T6: dsRNA tile of Zymoseptoria tritici Cyp51, 280 bp, location 881-1160 (nucleic acid, listed as Zymoseptoria tritici) ATGCCATTCCCGACAAGGAGATTGCTCATATGATGATTGCGCTGCTCATGGCCGGCCAGCACTCTTCATCTGCGACCGAGTCCTGGATCACTCTCCGCCTCGCATCCCGCCCCGACATCCAAGACGAACTCCTCCAAGAACAAAAGGATATGCTCGGTGTGAACGCCGACGGCAGTATCAAGGAGCTCACATACGCCAACCTCTCGAAACTCACCCTCCTCAATCAAGTCGTCAAAGAAACCCTTCGTATTCACGCTCCAATCCACTCCATTCTGCGCAA | 3.125 ppm | >200 ppm | 50% | 55% | 71% | 74% | 29.167 ppm | >200 ppm | 48% | 46% | 55% | 61% | control Septoria leaf blotch
MgCyp51-T8: dsRNA tile of Zymoseptoria tritici Cyp51, 242 bp, location 1151-1392 (nucleic acid, listed as Zymoseptoria tritici) TTCTGCGCAAGGTCAAGTCTCCCATGCCCATCGAAGGTACGGCATACGTCATTCCAACCACCCACACTCTTCTGGCCGCTCCGGGCACAACGAGCCGCATGGACGAGCACTTTCCCGACTGCCTCCATTGGGAGCCGCATCGATGGGACGAGAGCCCGTCCGAGAAATACAAGCACCTGTCCCCGACGACTGCCCTAGGAAGCATCGCCGAGGAGAAAGAAGACTATGGCTACGGCCTGGTA | 5.208 ppm | >200 ppm | 46% | 64% | 65% | 74% | <3.125 ppm | >200 ppm | 61% | 68% | 73% | 73% | control Septoria leaf blotch
